Reference: patent US20240277845A1
Where a chain is given by its changes, count along the chain named. In names and notes the source's numbering stands. Each block holds one binder with its values, some of them ahead of it.

Assays:
Fc-wtNKG2D (human) = Fc-wtNKG2D (human) (UniProt P26718); test: ELISA; wells coated with Fc-wtNKG2D, R3Mab heavy-chain MicAbody titrated
Fc-iNKG2D.YA (human) = Fc-iNKG2D.YA (human) (UniProt P26718); test: ELISA; wells coated with Fc-iNKG2D.YA, R3Mab heavy-chain MicAbody titrated
Fc-iNKG2D.YA (human), sequence (P26718 other isoform, or with tags, fused parts or gaps limits assumed): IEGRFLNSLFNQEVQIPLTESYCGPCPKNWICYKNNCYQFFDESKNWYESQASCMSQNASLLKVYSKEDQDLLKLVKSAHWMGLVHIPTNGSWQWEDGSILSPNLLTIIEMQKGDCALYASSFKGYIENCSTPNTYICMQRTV

Fc-wtNKG2D (human), sequence (P26718 other isoform, or with tags, fused parts or gaps limits assumed): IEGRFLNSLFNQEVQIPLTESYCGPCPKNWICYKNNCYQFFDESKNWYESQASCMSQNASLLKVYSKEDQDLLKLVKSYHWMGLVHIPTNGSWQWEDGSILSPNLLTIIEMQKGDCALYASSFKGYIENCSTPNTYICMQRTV

EC50 (read off the curve) (Fc-wtNKG2D (human)): 0.4 nM
B1: R3Mab heavy-chain fusion of wild-type ULBP2 (MicAbody) (bispecific antibody, part only; not given: R3Mab variable domains, light chain, Fc, not shown: a dimerising Fc or GST)
heavy, part: GGGSDPHSLCYDITVIPKFRPGPRWCAVQGQVDEKTFLHYDCGNKTVTPVSPLGKKLNVTTAWKAQNPVLREVVDILTEQLRDIQLENYTPKEPLTLQARMSCEQKAEGHSSGSWQFSFDGQIFLLFDSEKRMWTTVHPGARKMKEKWENDKVVAMSFHYFSMGDCIGWLEDFLMGMDSTLEPSAGAP

EC50 (read off the curve) (Fc-wtNKG2D (human)): 0.02 nM
B2: R3Mab heavy-chain fusion of ULBP2 R81W (MicAbody) (bispecific antibody, part only; not given: R3Mab variable domains, light chain, Fc, not shown: a dimerising Fc or GST)
heavy, part: B1 heavy, part with R82W

EC50 (read off the curve) (Fc-iNKG2D.YA (human)): 0.02 nM
B3: R3Mab heavy-chain fusion of U2S3 (MicAbody) (bispecific antibody, part only; not given: R3Mab variable domains, light chain, Fc, IgG1, not shown: a dimerising Fc or GST)
heavy, part: GGGSEPHSLSYDITVIPKFRPGPRWCAVQGQVDEKTFLHYDCGNKTVTPVSPLGKKLNVTTAWKAQNPVLREVVDILTEQLWDIQLENYTPKEPLTLQARMSCEQKAEGHSSGSWQFSFDGQIFLLFDSEKRMWTTVHPGARKMKEKWENDKVVATKLYLWSMGDCIGWLEDFLMGMDSTLEP
